Data from patent publication US20040018204A1.

Assays:
[1] = molecular target: mouse B6 MHC class I antigens (H-2b: D^b or K^b) on the surface of RMA-S cells (mouse); assay: binding of 9mer peptides within p117-139 to mouse B6 (H-2b) class I antigens; RMA-S assay as for Table XLVII
[2] = molecular target: mouse B6 MHC class I antigens (H-2b: D^b or K^b) on the surface of RMA-S cells (mouse); assay: RMA-S class I stabilisation, peptide 25 ug/ml, flow cytometry with FITC anti-D^b or anti-K^b, MFI against medium alone

Row | Binder | Binding Affinity to Mouse MHC Class I [1] [%] | Binding Affinity to Mouse MHC Class I (% increase of class I on RMA-S cells) [2] [%]
1 | ARMFPNAPY [WT1 peptide P125-133 (…)] | 1 | –
2 | NAPYLPSCL [WT1 peptide P130-138 (…)] | 79 | –
3 | NQMNLGATL [WT1 peptide p239-247 (…)] | – | 1
4 | SSGQARMFP [WT1 peptide P121-129 (…)] | 1 | –
5 | MFPNAPYLP [WT1 peptide P127-135 (…)] | 2 | –
6 | SQASSGQAR [WT1 peptide P118-126 (…)] | 2 | –
7 | NLYQMTSQL [WT1 peptide p225-233 (…)] | – | 5.8
8 | CMTWNQMNL [WT1 peptide p235-243 (…)] | – | 33.6
9 | PSQASSGQA [WT1 peptide P117-125 (…)] | 2 | –
10 | GCNKRYFKL [WT1 peptide p329-337 (…)] | – | 1.2
11 | ALLPAVPSL [WT1 peptide p10-18 human (…)] | – | 2.2
12 | FPNAPYLPS [WT1 peptide P128-136 (…)] | 1 | –
13 | QMTSQLECM [WT1 peptide p228-236 (…)] | – | 1.2
14 | SCLESQPAI [WT1 peptide p136-144 human (…)] | – | 52
15 | PNAPYLPSC [WT1 peptide P129-137 (…)] | 1 | –
16 | QASSGQARM [WT1 peptide P119-127 (…)] | 2 | –
17 | QARMFPNAP [WT1 peptide P124-132 (…)] | 1 | –
18 | ASSGQARMF [WT1 peptide P120-128 (…)] | 1 | –
19 | APYLPSCLE [WT1 peptide P131-139 (…)] | 1 | –
20 | YSSDNLYQM [WT1 peptide p221-229 (…)] | – | 0.8
